Measurements: patent US20220363763A1

Key:
[1] = biological target: human PD-L1 expressed on mammalian cells (human) (UniProt Q9NZQ7); assay: cell-based binding on Raji-PDL1 cells (FACS by paragraph 328; the y axis of the sheet is labelled IL2 (ng/ml)); EC50 table has no unit, x axis Concentration (nM)
[2] = biological target: human LAG3 on cells (human) (UniProt P18627); assay: flow cytometry (MFI) on Jurkat-LAG3 cells, upper panel; EC50 table has no unit, x axis Concentration (nM); fit value of a flat control curve
Chain of human LAG3 on cells (human) (P18627 23-525): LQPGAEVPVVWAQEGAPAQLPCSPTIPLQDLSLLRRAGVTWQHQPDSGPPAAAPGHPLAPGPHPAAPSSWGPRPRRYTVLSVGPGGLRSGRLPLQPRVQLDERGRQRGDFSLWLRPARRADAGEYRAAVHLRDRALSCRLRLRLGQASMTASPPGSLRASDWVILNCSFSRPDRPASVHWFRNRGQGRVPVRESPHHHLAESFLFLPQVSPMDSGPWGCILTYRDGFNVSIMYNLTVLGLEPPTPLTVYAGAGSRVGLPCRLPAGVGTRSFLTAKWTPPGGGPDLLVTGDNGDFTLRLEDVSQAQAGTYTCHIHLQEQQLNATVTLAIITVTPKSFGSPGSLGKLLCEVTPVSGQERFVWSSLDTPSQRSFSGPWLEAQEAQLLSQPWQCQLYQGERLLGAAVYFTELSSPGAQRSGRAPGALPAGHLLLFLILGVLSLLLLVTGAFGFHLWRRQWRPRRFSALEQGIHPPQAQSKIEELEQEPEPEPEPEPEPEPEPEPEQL

[3] = biological target: human LAG3 on cells (human) (UniProt P18627); assay: flow cytometry (MFI) on activated CD4 T cells, lower panel; EC50 table has no unit, x axis Concentration (nM); fit value of a flat control curve
[4] = biological target: human PD-L1-Fc protein (human) (UniProt Q9NZQ7); assay: ELISA on coated human PD-L1-Fc; EC50 table has no unit, x axis Ab(nM); fit value of a flat control curve
Chain of human PD-L1-Fc protein (human) (Q9NZQ7 19-239 limits assumed): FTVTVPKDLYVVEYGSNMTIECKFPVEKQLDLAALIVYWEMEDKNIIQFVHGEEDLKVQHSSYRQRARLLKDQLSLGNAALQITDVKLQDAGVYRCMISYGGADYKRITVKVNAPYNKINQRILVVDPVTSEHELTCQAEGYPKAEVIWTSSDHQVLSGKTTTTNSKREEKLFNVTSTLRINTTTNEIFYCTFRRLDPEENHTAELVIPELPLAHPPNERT

Chain of human PD-L1 expressed on mammalian cells (human) (Q9NZQ7 19-290): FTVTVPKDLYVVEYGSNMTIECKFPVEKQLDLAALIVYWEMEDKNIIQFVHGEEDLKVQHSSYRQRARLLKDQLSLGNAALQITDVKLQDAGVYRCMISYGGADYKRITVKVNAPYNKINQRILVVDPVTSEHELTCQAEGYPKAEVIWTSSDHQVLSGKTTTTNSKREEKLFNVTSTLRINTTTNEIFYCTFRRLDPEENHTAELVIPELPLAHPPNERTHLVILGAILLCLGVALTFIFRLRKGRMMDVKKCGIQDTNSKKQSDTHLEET

Tecentriq (antibody)
EC50 [1]: 0.89 nM

IgG (antibody)
EC50 [2]: 0.463 nM
EC50 [3]: 3.59 mM

hIgG (antibody)
EC50 [4]: 84.8 nM
